The values that follow come from patent US20050244864A1, “Development and use of fluorescent probes of unbound analytes” (priority 2004, published 2005).

Format in all cases: binding
Test [1] in a line: Probe fluorescence ratio response to palmitate:BSA complex, relative to ADIFAB2 (ΔR/ΔRAD2). The conditions noted are these: fluorescence response (R-Ro) relative to ADIFAB2; palmitate. On the procedure:
(§1) The intensity ratio (“R” value) for a given probe is determined. The ratio is calculated using the following formula: R=Fλ1/Fλ2 wherein, Fλ1, is the measured fluorescence intensities (intensity of sample with probe present minus intensity of sample without probe present) at wavelength 1 and Fλ2 is the measured fluorescence intensities (intensity of sample with probe present minus intensity of sample without probe present) at wavelength 2. Then, for a given probe, ΔR, the difference in R value between the measurement in the presence of the analyte and in the absence of the analyte, is calculated as follows: ΔR=R+analyte−R0 The ΔR value for a given probe is then compared to a reference probe, for example, ADIFAB or ADIFAB2, by ΔR/ΔRreference. This value is an indication of how dissimilar the new probe (derived by mutation of the template) is to the reference. By this method, probes with new and useful characteristics may be identified. Measurements of fluorescence intensities are obtained using standard techniques.
(§2) Mutant probes were screened in 96-well plates by fluorescence response to five fatty acids: arachidonate, linolenate, linoleate, oleate, and palmitate. Each fatty acid was prepared as a complex with BSA by slow addition of 50 mM stocks of fatty acid sodium salts at pH 11 to 600 μM BSA in HEPES buffer. During the formation of complexes, 15 μL aliquots were periodically measured with the reference probe, ADIFAB2, to determine the ΔR value upon excitation at 375 nm and fluorescence emission at 550 and 457 nm using a Fluorolog-3 spectrofluorometer (Jobin Yvon) (Richieri et al, Molecular and Cellular Biochemistry (1999), 192:87-94 & Richieri et al, J. Biol. Chem. (1996), 271:31068-31074). Complexes were prepared such that the final ΔR was approximately 0.4 which correspond to [FFAu] ranging from 100 to 1000 nM depending on FFA type. These complexes buffer or clamp the FFAu levels at fixed values and therefore ensure the accurate comparison of different probes with the same FFAu concentrations. In contrast, addition of FFAu alone (i.e. uncomplexed FFA) introduces considerable uncertainty in comparing different probes because the FFAu level will be affected by binding to the dispensing device, the walls of the multi-well plates and to the probe itself. Thus, the terms “buffer” and “clamp” as used in this particular context herein are taken to mean the ability of a carrier macromolecule to complex with an unbound metabolite so that the unbound metabolite is presented accurately for measurement purposes and is prevented from non-specific binding such as binding to laboratory apparatus.
(§3) Plates were prepared and read in two stages. First, complexes and fatty acid free BSA were diluted to 6 μM BSA in HEPES and added to the 96-well plate at 300 μL per well. A MultiProbe II HT (Perkin Elmer) (an automated liquid handling system) was used to facilitate plate preparation for high throughput screening, but any automated or manual pipetting system will suffice. The background fluorescence was then measured at the same wavelengths as used for ADIFAB2 using a Fluorolog-3 spectrofluorometer with an external Micromax 384 fluorescence plate reader (Jobin Yvon). In the second stage, 30 μL aliquots of the mutant probes were added to multiple wells of the plate, one for each fatty acid and one with fatty acid free BSA only, and the fluorescence intensity at each wavelength was again measured on the plate reader. After subtraction of the background fluorescence, the fluorescence ratio of each well was calculated.
(§4) The fluorescence response was quantitatively compared to ADIFAB2 to search for changes in magnitude and fatty acid profile; for example the response to one fatty acid relative to another. For each probe the ratio differences (AR) between wells with each fatty acid compared to a corresponding well with fatty acid free BSA were recorded. […]

A short description of test [2]: Probe fluorescence ratio response to linoleate:BSA complex, relative to ADIFAB2 (ΔR/ΔRAD2). The conditions noted are these: fluorescence response (R-Ro) relative to ADIFAB2; linoleate. On the procedure: as §1, §2, §3, §4
The nature of test [3]: Probe fluorescence ratio response to linolenate:BSA complex, relative to ADIFAB2 (ΔR/ΔRAD2). The conditions noted are these: fluorescence response (R-Ro) relative to ADIFAB2; linolenate. On the procedure:
as §1, §2, §3, §4

Test [4] in a line: Probe fluorescence ratio response to oleate:BSA complex, relative to ADIFAB2 (ΔR/ΔRAD2). The conditions noted are these: fluorescence response (R-Ro) relative to ADIFAB2; oleate. On the procedure: as §1, §2, §3, §4
A short description of test [5]: Probe fluorescence ratio response to arachidonate:BSA complex, relative to ADIFAB2 (ΔR/ΔRAD2). The conditions noted are these: fluorescence response (R-Ro) relative to ADIFAB2; arachidonate. On the procedure:
as §1, §2, §3, §4

Residue numbers refer to the chain shown, from its start. Names and notes keep the numbering of the source.

B1: L72A: acrylodan-labeled rI-FABP clone with L72A (the template mutein) (protein, listed as Rattus norvegicus)
chain: AFDGTWKVDRNENYEKFMEKMGINVVKRKLGAHDNLKLTITQEGNKFTVKESSNFRNIDVVFELGVDFAYSAADGTELTGTWTMEGNKLVGKFKRVDNGKELIAVREISGNELIQTYTYEGVEAKRIFKKDRGHHHHHH
modifications: acrylodan label; MUTAGEN (72)...(72) rat intestinal fatty acid binding protein with alanine substitution for leucine at position 72
On to B1, for which, in test [1], the “ΔR/ΔRAD2 PA” value was 1.02. Moreover, in test [2], the “ΔR/ΔRAD2 LA” value amounted to 1.14. In test [3], the “ΔR/ΔRAD2 LNA” value is 1.16. Further, in test [4], the “ΔR/ΔRAD2 OA” value amounted to 1.15. Further, the “ΔR/ΔRAD2 AA” value in test [5] turned out to be 1.12.

B2: Y117A, L72A: acrylodan-labeled rI-FABP mutein Y117A, L72A (protein)
chain: AFDGTWKVDRNENYEKFMEKMGINVVKRKLGAHDNLKLTITQEGNKFTVKESSNFRNIDVVFELGVDFAYSAADGTELTGTWTMEGNKLVGKFKRVDNGKELIAVREISGNELIQTATYEGVEAKRIFKKE
Consider B2, for which, in test [1], the “ΔR/ΔRAD2 PA” value came out at 0.32. Besides, the “ΔR/ΔRAD2 LA” value in test [2] worked out at 1.01. For the same molecule, the “ΔR/ΔRAD2 LNA” value in test [3] was 0.62. For the same molecule, the “ΔR/ΔRAD2 OA” value in test [4] was determined as 0.93. Also, the “ΔR/ΔRAD2 AA” value in test [5] came to 1.27.

B3: L1P12 G10: acrylodan-labeled rI-FABP mutein: Y14 I, L38 wt, L72 wt, Y117 wt (protein, UniProt P02693 2-132, looked up, variant Y14I)
Fatty acid-binding protein, …: B2 chain with Y14I, A72L, A117Y
modifications: acrylodan label
As for B3, the “ΔR/ΔRAD2 PA” value in test [1] is 0.8. Besides, in test [2], the “ΔR/ΔRAD2 LA” value worked out at 0.9. In test [3], the “ΔR/ΔRAD2 LNA” value came out at 1.0. Further, the “ΔR/ΔRAD2 OA” value in test [4] is 0.5. Besides, in test [5], the “ΔR/ΔRAD2 AA” value stood at 0.8.

B4: L72G: acrylodan-labeled rI-FABP mutein L72G (protein)
chain: B2 chain with A72G, A117Y
As for B4, the “ΔR/ΔRAD2 PA” value in test [1] is listed as 0.26. Besides, the “ΔR/ΔRAD2 LA” value in test [2] amounted to 0.48. Also, the “ΔR/ΔRAD2 LNA” value in test [3] turned out to be 0.48. The “ΔR/ΔRAD2 OA” value in test [4] is 0.52. In addition, the “ΔR/ΔRAD2 AA” value in test [5] is 0.62.

B5: L1P7 B11: acrylodan-labeled rI-FABP mutein: Y14 I, L38 I, L72 V, Y117 wt (protein, UniProt P02693 2-132, looked up, variant Y14I L38I L72V)
Fatty acid-binding protein, …: B2 chain with Y14I, L38I, A72V, A117Y
modifications: acrylodan label
notes: acrylodan-labeled rI-FABP mutein: Y14 I, L38 I, L72 V, Y117 wt
Turning to B5, the “ΔR/ΔRAD2 PA” value in test [1] turned out to be 0.8. Moreover, the “ΔR/ΔRAD2 LA” value in test [2] worked out at 0.9. Further, the “ΔR/ΔRAD2 LNA” value in test [3] was 0.9. In addition, the “ΔR/ΔRAD2 OA” value in test [4] is on record as 0.4. Besides, the “ΔR/ΔRAD2 AA” value in test [5] came out at 0.7.

B6: L1P2 F7: acrylodan-labeled rI-FABP mutein: Y14 I, L38 wt, L72 G, Y117 V (protein, UniProt P02693 2-132, looked up, variant Y14I L72G Y117V)
Fatty acid-binding protein, …: B2 chain with Y14I, A72G, A117V
modifications: acrylodan label
notes: acrylodan-labeled rI-FABP mutein: Y14 I, L38 wt, L72 G, Y117 V
In the case of B6, the “ΔR/ΔRAD2 PA” value in test [1] came to 0.1. The “ΔR/ΔRAD2 LA” value in test [2] turned out to be 0.6. Further, the “ΔR/ΔRAD2 LNA” value in test [3] worked out at 0.5. Further, the “ΔR/ΔRAD2 OA” value in test [4] amounted to 0.3. Moreover, the “ΔR/ΔRAD2 AA” value in test [5] was 0.9.

B7: A73F, L72A: acrylodan-labeled rI-FABP mutein A73F, L72A (protein)
chain: B2 chain with A73F, A117Y
As to B7, the “ΔR/ΔRAD2 PA” value in test [1] is on record as 1.13. In addition, the “ΔR/ΔRAD2 LA” value in test [2] stood at 1.23. Also, in test [3], the “ΔR/ΔRAD2 LNA” value amounted to 1.86. Further, the “ΔR/ΔRAD2 OA” value in test [4] was 0.73. Further, the “ΔR/ΔRAD2 AA” value in test [5] came out at 1.21.

B8: L72M: acrylodan-labeled rI-FABP mutein L72M (protein)
chain: B2 chain with A72M, A117Y
For B8, the “ΔR/ΔRAD2 PA” value in test [1] is given as 1.32. Further, in test [2], the “ΔR/ΔRAD2 LA” value is given as 1.46. In addition, the “ΔR/ΔRAD2 LNA” value in test [3] is listed as 1.35. In test [4], the “ΔR/ΔRAD2 OA” value is reported as 1.49. The “ΔR/ΔRAD2 AA” value in test [5] was 1.31.

B9: Y117S, L72A: acrylodan-labeled rI-FABP mutein Y117S, L72A (protein)
chain: B2 chain with A117S
As for B9, the “ΔR/ΔRAD2 PA” value in test [1] was 0.55. The “ΔR/ΔRAD2 LA” value in test [2] is 1.42. The “ΔR/ΔRAD2 LNA” value in test [3] is recorded as 1.07. The “ΔR/ΔRAD2 OA” value in test [4] is reported as 1.19. In test [5], the “ΔR/ΔRAD2 AA” value turned out to be 1.35.

B10: A73I, L72A: acrylodan-labeled rI-FABP mutein A73I, L72A (protein)
chain: B2 chain with A73I, A117Y
On to B10, for which the “ΔR/ΔRAD2 PA” value in test [1] is −0.04. Besides, the “ΔR/ΔRAD2 LA” value in test [2] was −0.04. In addition, the “ΔR/ΔRAD2 LNA” value in test [3] is listed as 0.03. Further, in test [4], the “ΔR/ΔRAD2 OA” value is reported as −0.04. For the same molecule, in test [5], the “ΔR/ΔRAD2 AA” value is reported as 0.38.

B11: L1P1 F7: acrylodan-labeled rI-FABP mutein: Y14 L, L38 M, L72 wt, Y117 F (protein, UniProt P02693 2-132, looked up, variant Y14L L38M Y117F)
Fatty acid-binding protein, …: B2 chain with Y14L, L38M, A72L, A117F
modifications: acrylodan label
notes: acrylodan-labeled rI-FABP mutein: Y14 L, L38 M, L72 wt, Y117 F
Consider B11, for which the “ΔR/ΔRAD2 PA” value in test [1] is 0.5. Further, in test [2], the “ΔR/ΔRAD2 LA” value is 0.9. Besides, the “ΔR/ΔRAD2 LNA” value in test [3] was 1.0. In test [4], the “ΔR/ΔRAD2 OA” value is 0.5. In addition, the “ΔR/ΔRAD2 AA” value in test [5] came to 0.9.

B12: L1P3 D6: acrylodan-labeled rI-FABP mutein: Y14 L, L38 wt, L72 wt, Y117 wt (protein, UniProt P02693 2-132, looked up, variant Y14L)
Fatty acid-binding protein, …: B2 chain with Y14L, A72L, A117Y
modifications: acrylodan label
Take B12: the “ΔR/ΔRAD2 PA” value in test [1] stood at 0.5. Moreover, the “ΔR/ΔRAD2 LA” value in test [2] is listed as 0.8. Besides, in test [3], the “ΔR/ΔRAD2 LNA” value is 0.9. In addition, in test [4], the “ΔR/ΔRAD2 OA” value was 0.5. Moreover, the “ΔR/ΔRAD2 AA” value in test [5] amounted to 0.9.

B13: L1P14 A9: acrylodan-labeled rI-FABP mutein: Y14 L, L38 wt, L72 G, Y117 I (protein, UniProt P02693 2-132, looked up, variant Y14L L72G Y117I)
Fatty acid-binding protein, …: B2 chain with Y14L, A72G, A117I
modifications: acrylodan label
notes: acrylodan-labeled rI-FABP mutein: Y14 L, L38 wt, L72 G, Y117 I
In the case of B13, the “ΔR/ΔRAD2 PA” value in test [1] is on record as 0.2. Moreover, the “ΔR/ΔRAD2 LA” value in test [2] amounted to 0.8. Moreover, in test [3], the “ΔR/ΔRAD2 LNA” value is on record as 0.8. The “ΔR/ΔRAD2 OA” value in test [4] is reported as 0.4. Moreover, in test [5], the “ΔR/ΔRAD2 AA” value amounted to 0.8.

B14: L1P12 F12: acrylodan-labeled rI-FABP mutein: Y14 L, L38 wt, L72 G, Y117 V (protein, UniProt P02693 2-132, looked up, variant Y14L L72G Y117V)
Fatty acid-binding protein, …: B2 chain with Y14L, A72G, A117V
modifications: acrylodan label
notes: acrylodan-labeled rI-FABP mutein: Y14 L, L38 wt, L72 G, Y117 V
On to B14, for which the “ΔR/ΔRAD2 PA” value in test [1] is given as 0.1. The “ΔR/ΔRAD2 LA” value in test [2] is 0.5. In addition, the “ΔR/ΔRAD2 LNA” value in test [3] is 0.5. Further, the “ΔR/ΔRAD2 OA” value in test [4] amounted to 0.3. The “ΔR/ΔRAD2 AA” value in test [5] was 0.9.
